From patent US20140294898A1
Positions of bridges follow the written chain, without caps; N, C: chain ends. Non-standard residues stand in square brackets, D forms with d. Phe(F5) = N[C@@H](Cc1c(F)c(F)c(F)c(F)c1F)C(=O)O; NMeF = CN[C@@H](Cc1ccccc1)C(=O)O; NMeNle = CCCC[C@H](NC)C(=O)O; Sar = CNCC(=O)O

Assays:
[1] = molecular target: hPDL1(19-239)-TVMV-His (human) (UniProt Q9NZQ7); assay: HTRF competition of PD-1-Ig binding to PD-L1-His; cluster 3 = IC50 0.03045 to >10 uM or not done
human PD-L1 (human) = human PD-L1 (human) (UniProt Q9NZQ7); assay: cell binding assay (CBA), PE-labeled PD-1-Ig on cells over-expressing human PD-L1; cluster 3 = IC50 0.07431 to >10 uM or not done
Sequence of human PD-L1 (human) (Q9NZQ7 19-290): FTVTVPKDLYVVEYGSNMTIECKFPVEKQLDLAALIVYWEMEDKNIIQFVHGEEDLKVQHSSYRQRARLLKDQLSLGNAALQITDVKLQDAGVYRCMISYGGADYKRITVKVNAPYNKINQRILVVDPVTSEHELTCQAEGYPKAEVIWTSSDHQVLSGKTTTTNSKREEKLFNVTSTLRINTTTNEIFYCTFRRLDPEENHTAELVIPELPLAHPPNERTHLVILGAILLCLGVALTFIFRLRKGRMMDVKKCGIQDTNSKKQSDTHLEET

Sequence of hPDL1(19-239)-TVMV-His (human) (Q9NZQ7 other isoform, or with tags, fused parts or gaps limits assumed): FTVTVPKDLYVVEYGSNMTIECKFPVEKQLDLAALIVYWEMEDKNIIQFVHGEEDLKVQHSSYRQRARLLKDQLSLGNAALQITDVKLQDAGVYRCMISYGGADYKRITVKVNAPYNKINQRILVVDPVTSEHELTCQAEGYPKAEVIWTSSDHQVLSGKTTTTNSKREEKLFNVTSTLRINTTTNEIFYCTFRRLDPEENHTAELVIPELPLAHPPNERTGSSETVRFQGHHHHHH

HTRF IC50 cluster [1]: 3 cluster | CBA IC50 cluster (human PD-L1 (human)): 3 cluster
B1: Example 3078 (peptide)
peptide: {CH2CO}-[Phe(F5)][NMeF][NMeNle][Sar]DV[NMeF]Y[Sar]WYLCG-NH2
modifications: thioether N-13
SMILES: CCCC[C@H]1C(=O)N(C)CC(=O)N[C@@H](CC(=O)O)C(=O)N[C@@H](C(C)C)C(=O)N(C)[C@@H](Cc2ccccc2)C(=O)N[C@@H](Cc2ccc(O)cc2)C(=O)N(C)CC(=O)N[C@@H](Cc2c[nH]c3ccccc23)C(=O)N[C@@H](Cc2ccc(O)cc2)C(=O)N[C@@H](CC(C)C)C(=O)N[C@H](C(=O)NCC(N)=O)CSCC(=O)N[C@@H](Cc2c(F)c(F)c(F)c(F)c2F)C(=O)N(C)[C@@H](Cc2ccccc2)C(=O)N1C
